1 substance from publication PMC8447599 can be followed below.

The term Kd denotes the concentration at which binding is half-saturated. High values mean lower affinity, low ones higher affinity. One may read the stoichiometry N as a count of units in the complex or per binding partner.

For assay [1], the target named is Holo-PGP (chromophore-loaded photosensory domain of FphA) (A. nidulans). Briefly: BLI. (In BLI a coated tip is dipped into the sample, and binding shifts an interference pattern.)
The target in assay [2] is Apo-PGP (photosensory domain of FphA without chromophore) (A. nidulans). Briefly: BLI.
Assay [3] deals with HoxA without the hydrophobic C-terminal membrane anchor (HoxA∆CTA), Strep-tagged (Alternaria alternata). Briefly: SEC. (In general: Size exclusion chromatography separates by hydrodynamic size, large species first.)

In the case of “HoxA without the hydrophobic C-terminal membrane anchor (HoxA∆CTA), Strep-tagged (domain or fragment)”, the Kd in assay [1] stood at 64.6 mM; in assay [2], 0.00113 mM. In assay [3], this substance yielded a stoichiometry N of 2.
